Residue numbers refer to the chain shown, from its start.
T1: mature VEGF-C (R&D Systems) (human, UniProt P49767 103-227)
T1 construct: Bought from R&D Systems; also called human VEGF-C matured form (R&D systems)
T1 sequence: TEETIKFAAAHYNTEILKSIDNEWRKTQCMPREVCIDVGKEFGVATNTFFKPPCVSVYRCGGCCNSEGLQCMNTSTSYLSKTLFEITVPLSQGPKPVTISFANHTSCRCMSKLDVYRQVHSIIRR

T2: hVEGF-C (human, UniProt P49767)
T2 construct: unlabelled; also called human VEGF-C
T2 sequence (VEGF-C, looked up): T1 sequence

T3: VEGF-C C137S
T3 construct: also called hVEGF-C C137S; human VEGF-C C137S
T3 VEGF-C: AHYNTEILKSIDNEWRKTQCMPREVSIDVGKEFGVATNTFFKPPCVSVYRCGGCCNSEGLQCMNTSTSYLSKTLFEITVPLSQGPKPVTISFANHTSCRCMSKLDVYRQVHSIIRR

T4: biotinylated human VEGF-C (human, UniProt P49767 112-227, limits assumed, biotin conjugated (site not stated))
T4 construct: Panning used the matured form from R&D Systems; also called biotin conjugated VEGF-C; biotinylated VEGF-C
T4 sequence: T3 VEGF-C with S26C

B1: VC4.5Fab (Fab, V domains shown)
VH: EVQLVESGGGLVQPGGSLRLSCAASGFTFTDNWIHWVRQAPGKGLEWVAVISPYSGATYYADSVKGRFTISADTSKNTAYLQMNSLRAEDTAVYYCARDADYKYAFWAFDYWGQGTLVTVSS
VL: DIQMTQSPSSLSASVGDRVTITCRASQDVSTAVAWYQQKPGKAPKLLIYSASFLYSGVPSRFSGSGSGTDFTLTISSLQPEDFATYYCQQSYTTPPTFGQGTKVEIKR
B2: anti-VEGF-C IgG VC4 (antibody, V domains shown)
VH: B1 VH with A49G, K103D, F106G
VL: DIQMTQSPSSLSASVGDRVTITCRASQDVSTAVAWYQQKPGKAPKLLIYSASFLYSGVPSRFSGSGSGTDFTLTISSLQPEDFATYYCQQSYTTPPTFGQGTKVEIK
notes: Only the six HVRs are tied to this clone; also called clone VC4
B3: anti-VEGF-C IgG VC3 (antibody, V domains shown)
VH: EVQLVESGGGLVQPGGSLRLSCAASGFTFTNTDIHWVRQAPGKGLEWVAWISPSSGYTDYADSVKGRFTISADTSKNTAYLQMNSLRAEDTAVYYCARWRDYRFGGVMDYWGQGTLVTVSS
VL: B2 VL
notes: Only the six HVRs are tied to this clone; also called clone VC3
B4: anti-VEGF-C IgG VC1 (antibody, V domains shown)
VH: EVQLVESGGGLVQPGGSLRLSCAASGFTFSDSDIHWVRQAPGKGLEWVAWISPYSGYTDYADSVKGRFTISADTSKNTAYLQMNSLRAEDTAVYYCARLFEVIFDYWGQGTLVTVSS
VL: B2 VL
notes: Only the six HVRs are tied to this clone; also called clone VC1
B5: VC1.12 (antibody, V domains shown)
VH: B4 VH with S55V, Y57F, E101D
VL: B1 VL
notes: also called clone VC1.12
B6: VC1.12.6 (antibody, V domains shown)
VH: B4 VH with S55V, Y57F, E101D
VL: B2 VL with T93N
notes: also called clone VC1.12.6
B7: VC1.12.2 (antibody, V domains shown)
VH: B4 VH with S55V, Y57F, E101D
VL: B2 VL with T93W, P96L
notes: also called clone VC1.12.2
B8: VC1.12.10 (antibody, V domains shown)
VH: B4 VH with S55V, Y57F, E101D
VL: B2 VL with T93Y, T94S, P96L
notes: also called clone VC1.12.10
B9: VC1.12.3 (antibody, V domains shown)
VH: B4 VH with S55V, Y57F, E101D
VL: B2 VL with S91T, T93A, T94I
notes: also called clone VC1.12.3
B10: VC1.12.9 (antibody, V domains shown)
VH: B4 VH with S55V, Y57F, E101D
VL: B2 VL with T94I
notes: also called clone VC1.12.9
B11: VC1.12.5 (antibody, V domains shown)
VH: B4 VH with S55V, Y57F, E101D
VL: B2 VL with P96T
notes: also called clone VC1.12.5
B12: VC1.12.8 (antibody, V domains shown)
VH: B4 VH with S55V, Y57F, E101D
VL: B2 VL with T93I
notes: also called clone VC1.12.8
B13: VC1.12.1 (antibody, V domains shown)
VH: B4 VH with S55V, Y57F, E101D
VL: B2 VL with T93N, T94I
notes: also called clone VC1.12.1
B14: VC1.12.4 (antibody, V domains shown)
VH: B4 VH with S55V, Y57F, E101D
VL: B2 VL with T94S, P96T
notes: also called clone VC1.12.4
B15: VC4.2 (antibody, V domains shown)
VH: B1 VH with A49G, K103A, F106W
VL: B2 VL
notes: also called clone VC4.2
B16: VC4.4 (antibody, V domains shown)
VH: B1 VH with A49G, A100V, K103Y, F106W, F109L
VL: B2 VL
notes: also called clone VC4.4
B17: VC4.3 (antibody, V domains shown)
VH: B1 VH with D31Y, N32S, A49G, V50F, Y54G, S55V, A57Y, T58S, K103D, F106G
VL: B2 VL with S91T, T93R, T94I, P96Y
notes: also called clone VC4.3
B18: VC1.11 (antibody, V domains shown)
VH: B4 VH with A97V, F100Y, E101D
VL: B2 VL
notes: also called clone VC1.11
B19: VC1.4 (antibody, V domains shown)
VH: B4 VH with A97V, E101G
VL: B2 VL
notes: also called clone VC1.4
B20: VC1.3 (antibody, V domains shown)
VH: B4 VH with A97V
VL: B2 VL
notes: also called clone VC1.3
B21: VC1.2 (antibody, V domains shown)
VH: B4 VH with V102I
VL: B2 VL
notes: also called clone VC1.2
B22: VC1.10 (antibody, V domains shown)
VH: B4 VH with A97V, E101G, V102I
VL: B2 VL
notes: also called clone VC1.10
B23: VC1.8 (antibody, V domains shown)
VH: B4 VH with A97T, E101T, V102I
VL: B2 VL
notes: also called clone VC1.8
B24: VC1.7 (antibody, V domains shown)
VH: B4 VH with E101D, V102I
VL: B2 VL
notes: also called clone VC1.7
B25: VC1.5 (antibody, V domains shown)
VH: B4 VH with F100W
VL: B2 VL
notes: also called clone VC1.5
B26: VC1.6 (antibody, V domains shown)
VH: B4 VH with A97V, E101D
VL: B2 VL
notes: also called clone VC1.6
B27: anti-VEGF-C antibody mVC4.5 (mIgG2a) (antibody, V domains shown)
VH: B1 VH
VL: B1 VL
notes: VC4.5 variable domains on a murine IgG2a backbone; also called VC4.5 murine IgG2a form; murine backbone anti-VEGF-C antibody

What follows are binders tested against T1, mature VEGF-C (R&D Systems) (assay: SPR, Biacore (Fab), VC4.5 Fab protein; set-up for the Fab not described (paragraph 557 describes captured IgG)).

**Q.** With B1 as the binder, how does the Kd read?
**A.** Its Kd is 27.5 nM.

What follows are binders tested against T2, hVEGF-C (assay: SPR, BIAcore-3000, 25 C: human IgG captured on CM5 chip (about 500 RU), human VEGF-C injected at 12.5-500 nM, 1:1 Langmuir fit).

**Q.** For B2, which Kd is on record?
**A.** Its Kd is 0.97 nM.

**Q.** What about the koff of the same binder?
**A.** The koff was 0.000263 s⁻¹.

**Q.** What about the kon of the same binder?
**A.** Its kon is 271000 M⁻¹ s⁻¹.

**Q.** For B3, which Kd is on record?
**A.** The Kd was 0.92 nM.

**Q.** What about the koff of the same binder?
**A.** The koff was 0.000541 s⁻¹.

**Q.** What about the kon of the same binder?
**A.** Its kon is 588000 M⁻¹ s⁻¹.

**Q.** Which results are given for B4?
**A.** Kd: 0.17 nM; koff: 0.000189 s⁻¹; kon: 1.07e+06 M⁻¹ s⁻¹

Biological target: T3, VEGF-C C137S
Assay: phage competition ELISA as in paragraph 556 with human VEGF-C C137S as antigen: phage-displayed clone, soluble antigen varied, anti-M13-HRP, OD450

**Q.** For B5, which IC50 is on record?
**A.** The IC50 was 32.4 nM.

**Q.** B6 was tested. Which IC50 did it give?
**A.** The IC50 was 32.8 nM.

**Q.** With B7 as the binder, how does the IC50 read?
**A.** The IC50 was 25.9 nM.

**Q.** With B8 as the binder, how does the IC50 read?
**A.** Its IC50 is 16.8 nM.

**Q.** How did the IC50 turn out when B9 was run?
**A.** Its IC50 is 23 nM.

**Q.** B10 was tested. Which IC50 did it give?
**A.** The IC50 was 4.8 nM.

**Q.** B11 was tested. Which IC50 did it give?
**A.** The IC50 was 28.1 nM.

**Q.** How did the IC50 turn out when B12 was run?
**A.** Its IC50 is 13.7 nM.

**Q.** B13 was tested. Which IC50 did it give?
**A.** Its IC50 is 7.29 nM.

**Q.** Which IC50 does the source give for B14 here?
**A.** The IC50 was 7.7 nM.

What follows are binders tested against T2, hVEGF-C (assay: phage competition ELISA: phage-displayed clone incubated with increasing soluble hVEGF-C, unbound phage captured on hVEGF-C coated plate, anti-M13-HRP, OD450).

**Q.** For B2, which IC50 is on record?
**A.** The IC50 was 32 nM.

**Q.** With B3 as the binder, how does the IC50 read?
**A.** Its IC50 is 300 nM.

**Q.** How did the IC50 turn out when B4 was run?
**A.** Its IC50 is 38 nM.

Biological target: T2, hVEGF-C
Assay: as above
Remark: another data set of the same source

**Q.** For B2, which IC50 is on record?
**A.** The IC50 was 32 nM.

**Q.** B15 was tested. Which IC50 did it give?
**A.** The IC50 was 2.64 nM.

**Q.** With B16 as the binder, how does the IC50 read?
**A.** Its IC50 is 2.17 nM.

**Q.** How did the IC50 turn out when B17 was run?
**A.** The IC50 was 2.72 nM.

Biological target: T2, hVEGF-C
Assay: as above
Remark: another data set of the same source

**Q.** With B5 as the binder, how does the IC50 read?
**A.** Its IC50 is 5.1 nM.

**Q.** For B4, which IC50 is on record?
**A.** The IC50 was 21.5 nM.

**Q.** How did the IC50 turn out when B18 was run?
**A.** Its IC50 is 25.3 nM.

**Q.** For B19, which IC50 is on record?
**A.** Its IC50 is 40.7 nM.

**Q.** For B20, which IC50 is on record?
**A.** The IC50 was 22.1 nM.

**Q.** With B21 as the binder, how does the IC50 read?
**A.** Its IC50 is 27.1 nM.

**Q.** How did the IC50 turn out when B22 was run?
**A.** The IC50 was 17 nM.

**Q.** How did the IC50 turn out when B23 was run?
**A.** Its IC50 is 22.5 nM.

**Q.** For B24, which IC50 is on record?
**A.** The IC50 was 20 nM.

**Q.** How did the IC50 turn out when B25 was run?
**A.** Its IC50 is 28 nM.

**Q.** With B26 as the binder, how does the IC50 read?
**A.** Its IC50 is 15.4 nM.

Each binder was assayed against T4, biotinylated human VEGF-C (assay: receptor blocking ELISA: fixed biotin-VEGF-C incubated 2 h with serial dilutions of IgG, unbound VEGF-C captured on immobilized VEGFR3-Fc, streptavidin-HRP, OD450; blocked interaction VEGF-C/VEGFR3. The value stands in brackets after the curve's name in the legend box; the quantity is not named on the sheet, the value agrees with the midpoint of the curve).

**Q.** Which IC50 does the source give for B27 here?
**A.** The IC50 was 0.74 nM.

— US20110143428A1 (Genentech, published 2011)
